Consider one substance from US20250161537A1, “IN-SITU INJECTABLE HYDROGEL ROD USING CROSSLINKED HYDROGEL, METHOD FOR MANUFACTURING SAME, AND BIOMEDICAL USE THEREOF” (AJOU UNIVERSITY INDUSTRY-ACADEMIC COOPERATION FOUNDATION, priority 2022, published 2025).

Data set [1] in a line: Intraocular pharmacokinetic evaluation after intravitreal injection (ELISA of vitreous, retina, aqueous humor). Format: in vivo, New Zealand White (NZW) rabbit. As to the method:
Bevacizumab drug control, hydrogel (in situ forming hydrogel) in Comparative Example, and hydrogel rod in Example were injected. The rabbits were sacrificed on days 1, 4, 8, 14, 30, 60, 90, and 120. In order to maintain its drug efficacy, the concentration of drug must be maintained from vitreous humor to retina, while the drug may be eliminated to the anterior chamber site. For evaluation, pharmacokinetic analysis of vitreous, retina, and aqueous humor tissues was conducted through ELISA after animal sacrifice and ocular separation by date.
After animal sacrifice and ocular separation by date, pharmacokinetic analysis of vitreous, retina, and aqueous tissues was performed via ELISA. […] The hydrogel rod of Example is a pre-crosslinking matrix, and, after the initial burst release is inhibited by 7 times compared to the control and 3 times compared to the hydrogel of Comparative Example, the drug was continuously released within a certain range and the drug concentration of about 32 µg/mL was maintained on 120 day, satisfying a level above […] which is the drug efficacy threshold of bevacizumab.
In general terms: In an ELISA, binding on a coated surface is turned into a signal by an enzyme label.

For data set [2], the system named is human umbilical vein endothelial cells (HUVECs). Nature of the data set: WST-1 assay, growth inhibition of HUVEC by released drug. Type of data set: cell-based. The conditions noted are these: released drug samples diluted 1:1 in culture medium; fresh bevacizumab 1, 10, 100 µg/mL. The method, then:
The long-term efficacy and biological stability of drugs released were evaluated through culture of human umbilical vein endothelial cells (HUVECs), which are cells that are involved in angiogenesis. After culturing HUVECs, they were prepared in 2×10^4 cells/well in a 48-well plate and treated with the long-term released bevacizumab drug samples diluted in 1:1 ratio in a cell culture medium (EBM media containing EGM supplements and 1% P/S) and fresh bevacizumab drug samples by concentration so as to observe cell growth inhibition and safety. For the control of fresh bevacizumab drug samples by concentration, preparation was performed at final concentrations of 1, 10, and 100 µg/mL, diluted in cell culture media.

Regarding bevacizumab, the “initial excess elimination maintained until” value in data set [1] (aqueous humor (drainway)) turned out to be 30 days. Also, the elimination curve entry in data set [1] (retina) and in data set [1] (vitreous) was “fastest elimination curve” throughout. Besides, the “inhibition of HUVEC cell growth (WST-1)” value in data set [2] was “inhibition of cell growth in proportion to the concentration of the drug”.
